Four sequences from PMC4606517 can be followed below.

Series [1] deals with hAgo2 (single-molecule) (Homo sapiens) (UniProt Q9UKV8). Put plainly: single-molecule FRET. The conditions noted are these: 5'-phosphate on guide, C6-amino-U in guide (nt 9) and in target (opposite guide nt 17), Filter binding: 30 mM Tris pH 8.0, 0.1 M K acetate, 2 mM Mg acetate, 0.5 mM TCEP, 0.005% NP-40, 0.01 mg/ml yeast tRNA, room temp, 45 min, 0.1 nM target ….
The target of series [2] is Ago2 wild type (Homo sapiens) (UniProt Q9UKV8). Kind of series: filter binding. As to conditions: 5'-phosphate on guide; target nt 9 (N) = inosine; Filter binding: 30 mM Tris pH 8.0, 0.1 M K acetate, 2 mM Mg acetate, 0.5 mM TCEP, 0.005% NP-40, 0.01 mg/ml yeast tRNA, room temp, 45 min, 0.1 nM target ….
Chain of Ago2 wild type (Homo sapiens) (Q9UKV8 whole entry): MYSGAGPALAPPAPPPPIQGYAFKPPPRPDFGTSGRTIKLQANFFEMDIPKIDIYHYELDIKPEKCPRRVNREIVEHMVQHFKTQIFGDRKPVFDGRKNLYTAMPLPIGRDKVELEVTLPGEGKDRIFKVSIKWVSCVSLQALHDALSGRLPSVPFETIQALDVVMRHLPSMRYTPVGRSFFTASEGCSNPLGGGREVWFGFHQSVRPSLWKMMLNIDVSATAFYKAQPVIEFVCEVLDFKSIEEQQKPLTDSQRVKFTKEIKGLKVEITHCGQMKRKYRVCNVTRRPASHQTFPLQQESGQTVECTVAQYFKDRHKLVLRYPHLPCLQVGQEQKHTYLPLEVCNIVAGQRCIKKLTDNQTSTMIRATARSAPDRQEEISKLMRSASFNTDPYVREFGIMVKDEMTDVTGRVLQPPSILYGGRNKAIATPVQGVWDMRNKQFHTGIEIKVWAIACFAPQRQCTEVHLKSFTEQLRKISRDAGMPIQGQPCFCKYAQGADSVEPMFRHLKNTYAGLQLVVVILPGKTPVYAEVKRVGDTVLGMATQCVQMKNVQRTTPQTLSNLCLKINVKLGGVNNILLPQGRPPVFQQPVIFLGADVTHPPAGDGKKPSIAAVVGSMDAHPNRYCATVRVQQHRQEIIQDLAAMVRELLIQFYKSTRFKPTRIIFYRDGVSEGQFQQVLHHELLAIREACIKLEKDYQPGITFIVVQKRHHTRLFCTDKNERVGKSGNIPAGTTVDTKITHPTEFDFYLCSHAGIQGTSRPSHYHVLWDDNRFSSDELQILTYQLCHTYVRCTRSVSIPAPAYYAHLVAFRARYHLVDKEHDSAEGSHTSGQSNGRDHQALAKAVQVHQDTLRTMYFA

Chain of hAgo2 (single-molecule) (Homo sapiens) (Q9UKV8 whole entry): as above

For “UGAGGUAUUUUUUUUUUUUUUU / UUUUUUUUUUUUUUUUUUUUUUUUUUUUUUUACUACCUCAUUUUUUUUUUUUUUUUUUUUUUUUUUUUU [smFRET guide + t1A target]”, in series [1] (long dwell time (50.2%), short 1.61 ± 0.29 s (49.8%)), the binding signal turned out to be 8.69 s.
“UGAGGUAUUUUUUUUUUUUUUU / UUUUUUUUUUUUUUUUUUUUUUUUUUUUUUUACUACCUCAUUUUUUUUUUUUUUUUUUUUUUUUUUUUU [smFRET guide + t1DAP target]” gave a binding signal in series [1] (long dwell time (55.4%), short 1.97 ± 0.24 s (44.6%), target nt 40 = 2,6-diaminopurine (written A)) of 12.9 s.
Take “UGAGGUAUUUUUUUUUUUUUUU / UUUUUUUUUUUUUUUUUUUUUUUUUUUUUUUACUACCUCUUUUUUUUUUUUUUUUUUUUUUUUUUUUUU [smFRET guide + t1U target]”: the binding signal in series [1] (dwell time, single exponential) was determined as 1.64 s.
Turning to “UUCACAUUGCCCAAGUCUCUU / CAAUGUGANAA [guide + t1I target]”, the dissociation constant (Kd) (as a rule, the concentration at which binding is half-saturated) in series [2] came to 1.7 nM.
